± gives the uncertainty stated by the source.
B1: Glucocorticoid receptor, residues 419 to 494; numbered along this chain, P04150 (parent)
chain: KLCLVCSDEASGCHYGVLTCGSCKVFFKRAVEGQHNYLCAGRNDCIIDKIRRKNCPACRYRKCLQAGMNLEARKTK

Variants of: B1
Experiment: abundance fitness (aPCA) (normalised: wild type 0, dead -1); higher = more abundant; growth selection in yeast, the domain comes from the species named
Conditions: Homo sapiens

| Variant | abundance fitness |
| --- | --- |
| KLCLVCSDEASGCHYGVLTCGSCKVFFKRAVVGQHNYLCAGRNDCIIDKIRRKNCPACRYRKCLQAGMNLEARKTK [E32V] | -0.051 ± 0.036 |
| KLCLVCSDEASGCHYGVLTCGSCKVFFKRAVCGQHNYLCAGRNDCIIDKIRRKNCPACRYRKCLQAGMNLEARKTK [E32C] | -0.031 ± 0.056 |
| KLCLVCSDEASGCHYGVLTCGSCKVFFKIAVEGQHNYLCAGRNDCIIDKIRRKNCPACRYRKCLQAGMNLEARKTK [R29I] | 0.018 ± 0.064 |
| KLCLVCSDEASGCHYGVLTCGSCKVFFKEAVEGQHNYLCAGRNDCIIDKIRRKNCPACRYRKCLQAGMNLEARKTK [R29E] | 0.033 ± 0.05 |
| KLCLVCSDEASGCHYGVLTCGSCKVFFKSAVEGQHNYLCAGRNDCIIDKIRRKNCPACRYRKCLQAGMNLEARKTK [R29S] | -0.056 ± 0.039 |
| KLCLVCSDEASGCHYGVLTCGSCKVFFKFAVEGQHNYLCAGRNDCIIDKIRRKNCPACRYRKCLQAGMNLEARKTK [R29F] | -0.152 ± 0.076 |
| KLCLVCSDEASGCHYGVLTCGSCKVFFKTAVEGQHNYLCAGRNDCIIDKIRRKNCPACRYRKCLQAGMNLEARKTK [R29T] | -0.029 ± 0.056 |
| KLCLVCSDEASGCHYGVLTCGSCKVFFKKAVEGQHNYLCAGRNDCIIDKIRRKNCPACRYRKCLQAGMNLEARKTK [R29K] | 0.03 ± 0.059 |
| KLCLVCSDEASGCHYGVLTCGSCKVFFKLAVEGQHNYLCAGRNDCIIDKIRRKNCPACRYRKCLQAGMNLEARKTK [R29L] | -0.017 ± 0.034 |
| KLCLVCSDEASGCHYGVLTCGSCKVFFKCAVEGQHNYLCAGRNDCIIDKIRRKNCPACRYRKCLQAGMNLEARKTK [R29C] | -0.077 ± 0.07 |
| KLCLVCSDEASGCHYGVLTCGSCKVFFKQAVEGQHNYLCAGRNDCIIDKIRRKNCPACRYRKCLQAGMNLEARKTK [R29Q] | -0.072 ± 0.045 |
| KLCLVCSDEASGCHYGVLTCGSCKVFFKYAVEGQHNYLCAGRNDCIIDKIRRKNCPACRYRKCLQAGMNLEARKTK [R29Y] | -0.072 ± 0.1 |
| KLCLVCSDEASGCHYGVLTCGSCKVFFKMAVEGQHNYLCAGRNDCIIDKIRRKNCPACRYRKCLQAGMNLEARKTK [R29M] | -0.113 ± 0.046 |
| KLCLVCSDEASGCHYGVLTCGSCKVFFKNAVEGQHNYLCAGRNDCIIDKIRRKNCPACRYRKCLQAGMNLEARKTK [R29N] | -0.007 ± 0.083 |
| KLCLVCSDEASGCHYGVLTCGSCKVFFKHAVEGQHNYLCAGRNDCIIDKIRRKNCPACRYRKCLQAGMNLEARKTK [R29H] | -0.071 ± 0.075 |
| KLCLVCSDEASGCHYGVLTCGSCKVFFKDAVEGQHNYLCAGRNDCIIDKIRRKNCPACRYRKCLQAGMNLEARKTK [R29D] | 0.02 ± 0.072 |
| KLCLVCSDEASGCHYGVLTCGSCKVFFKGAVEGQHNYLCAGRNDCIIDKIRRKNCPACRYRKCLQAGMNLEARKTK [R29G] | -0.057 ± 0.034 |
| KLCLVCSDEASGCHYGVLTCGSCKVFFKWAVEGQHNYLCAGRNDCIIDKIRRKNCPACRYRKCLQAGMNLEARKTK [R29W] | -0.095 ± 0.046 |

| Variant | abundance fitness |
| --- | --- |
| KLCLVCSDEASGCHYGVLTCGSCKVFFKRSVEGQHNYLCAGRNDCIIDKIRRKNCPACRYRKCLQAGMNLEARKTK [A30S] | -0.08 ± 0.042 |
| KLCLVCSDEASGCHYGVLTCGSCKVFFKRGVEGQHNYLCAGRNDCIIDKIRRKNCPACRYRKCLQAGMNLEARKTK [A30G] | -0.274 ± 0.038 |
| KLCLVCSDEASGCHYGVLTCGSCKVFFKRQVEGQHNYLCAGRNDCIIDKIRRKNCPACRYRKCLQAGMNLEARKTK [A30Q] | -0.192 ± 0.049 |
| KLCLVCSDEASGCHYGVLTCGSCKVFFKRDVEGQHNYLCAGRNDCIIDKIRRKNCPACRYRKCLQAGMNLEARKTK [A30D] | -0.701 ± 0.2 |
| KLCLVCSDEASGCHYGVLTCGSCKVFFKRMVEGQHNYLCAGRNDCIIDKIRRKNCPACRYRKCLQAGMNLEARKTK [A30M] | 0.051 ± 0.053 |
| KLCLVCSDEASGCHYGVLTCGSCKVFFKRKVEGQHNYLCAGRNDCIIDKIRRKNCPACRYRKCLQAGMNLEARKTK [A30K] | -0.165 ± 0.062 |
| KLCLVCSDEASGCHYGVLTCGSCKVFFKRRVEGQHNYLCAGRNDCIIDKIRRKNCPACRYRKCLQAGMNLEARKTK [A30R] | -0.457 ± 0.045 |
| KLCLVCSDEASGCHYGVLTCGSCKVFFKRYVEGQHNYLCAGRNDCIIDKIRRKNCPACRYRKCLQAGMNLEARKTK [A30Y] | -0.102 ± 0.1 |
| KLCLVCSDEASGCHYGVLTCGSCKVFFKRWVEGQHNYLCAGRNDCIIDKIRRKNCPACRYRKCLQAGMNLEARKTK [A30W] | -0.183 ± 0.042 |
| KLCLVCSDEASGCHYGVLTCGSCKVFFKRNVEGQHNYLCAGRNDCIIDKIRRKNCPACRYRKCLQAGMNLEARKTK [A30N] | -0.283 ± 0.098 |
| KLCLVCSDEASGCHYGVLTCGSCKVFFKRFVEGQHNYLCAGRNDCIIDKIRRKNCPACRYRKCLQAGMNLEARKTK [A30F] | -0.142 ± 0.099 |
| KLCLVCSDEASGCHYGVLTCGSCKVFFKRVVEGQHNYLCAGRNDCIIDKIRRKNCPACRYRKCLQAGMNLEARKTK [A30V] | 0.026 ± 0.037 |
| KLCLVCSDEASGCHYGVLTCGSCKVFFKRHVEGQHNYLCAGRNDCIIDKIRRKNCPACRYRKCLQAGMNLEARKTK [A30H] | -0.292 ± 0.09 |
| KLCLVCSDEASGCHYGVLTCGSCKVFFKRLVEGQHNYLCAGRNDCIIDKIRRKNCPACRYRKCLQAGMNLEARKTK [A30L] | -0.32 ± 0.043 |
| KLCLVCSDEASGCHYGVLTCGSCKVFFKRIVEGQHNYLCAGRNDCIIDKIRRKNCPACRYRKCLQAGMNLEARKTK [A30I] | -0.071 ± 0.083 |
| KLCLVCSDEASGCHYGVLTCGSCKVFFKRPVEGQHNYLCAGRNDCIIDKIRRKNCPACRYRKCLQAGMNLEARKTK [A30P] | -0.907 ± 0.19 |
| KLCLVCSDEASGCHYGVLTCGSCKVFFKRTVEGQHNYLCAGRNDCIIDKIRRKNCPACRYRKCLQAGMNLEARKTK [A30T] | -0.064 ± 0.05 |
| KLCLVCSDEASGCHYGVLTCGSCKVFFKREVEGQHNYLCAGRNDCIIDKIRRKNCPACRYRKCLQAGMNLEARKTK [A30E] | -0.142 ± 0.043 |

— the Human Domainome abundance scans (Beltran et al. 2025)
